In patent US20050282743A1, “Molecular interactions in cells” (Arbor Vita Corporation, priority 2001, published 2005) one finds Classification and Kd data, which are given here for three molecules.

The target of assay [1] is T1, GST-TIP1 PDZ domain 1 (Table 9 insert) (Homo sapiens (Human)), O14907.
T1 chain: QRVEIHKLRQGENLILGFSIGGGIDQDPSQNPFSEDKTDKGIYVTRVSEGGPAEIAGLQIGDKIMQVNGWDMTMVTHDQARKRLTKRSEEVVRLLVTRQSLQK
Kind of assay: G' assay. Also: key of the grades not given here.

In assay [2] the target is GST-KIAA1634 PDZ domain 1 (Homo sapiens (Human)), Q5TCQ9. Kind of assay: G' assay. Also: key of the grades not given here.
Chain of GST-KIAA1634 PDZ domain 1 (Homo sapiens (Human)), Q5TCQ9 (Q5TCQ9 401-502): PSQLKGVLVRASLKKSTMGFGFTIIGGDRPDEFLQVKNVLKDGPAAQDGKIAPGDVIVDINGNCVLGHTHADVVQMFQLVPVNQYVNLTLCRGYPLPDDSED
In assay [3] the target is T2, GST-KIAA1719 PDZ domain 5 (Homo sapiens (Human)), Q9C0E4.
T2 chain: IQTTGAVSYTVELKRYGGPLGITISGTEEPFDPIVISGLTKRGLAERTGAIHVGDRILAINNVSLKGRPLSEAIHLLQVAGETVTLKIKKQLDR
Put plainly: G' assay. Also: key of the grades not given here.

Assay [4] addresses T3, GST-MINT1 PDZ domains 1, 2, Q02410.
T3 chain: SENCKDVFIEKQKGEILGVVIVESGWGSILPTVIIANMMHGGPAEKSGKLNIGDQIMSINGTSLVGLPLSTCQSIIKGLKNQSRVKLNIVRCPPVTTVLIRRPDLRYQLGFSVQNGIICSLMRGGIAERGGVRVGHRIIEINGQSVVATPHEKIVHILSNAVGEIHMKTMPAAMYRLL
Put plainly: G' assay. Also: key of the grades not given here.

In assay [5] the target is T4, GST-KIAA1719 PDZ domain 2 (Homo sapiens (Human)), Q9C0E4.
T4 chain: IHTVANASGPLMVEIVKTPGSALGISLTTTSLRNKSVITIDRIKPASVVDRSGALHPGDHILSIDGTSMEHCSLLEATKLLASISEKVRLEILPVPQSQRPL
Put plainly: G' assay. Also: key of the grades not given here.

The target of assay [6] is GST-TAX IP2 PDZ domain 1 [GST: P08515]. Kind of assay: G' assay. Also: key of the grades not given here.
Chain of GST-TAX IP2 PDZ domain 1 [GST: P08515] (P08515 whole entry, the tested form may be a part): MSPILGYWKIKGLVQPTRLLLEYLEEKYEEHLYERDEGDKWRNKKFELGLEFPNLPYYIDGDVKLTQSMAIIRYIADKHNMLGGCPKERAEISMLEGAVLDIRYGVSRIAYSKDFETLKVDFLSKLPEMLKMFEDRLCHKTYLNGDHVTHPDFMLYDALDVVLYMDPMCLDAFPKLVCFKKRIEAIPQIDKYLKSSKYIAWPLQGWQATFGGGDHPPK
In assay [7] the target is T5, GST-KIAA0807(S) PDZ domain 1 (Homo sapiens (Human)), Q6P0Q8.
T5 chain: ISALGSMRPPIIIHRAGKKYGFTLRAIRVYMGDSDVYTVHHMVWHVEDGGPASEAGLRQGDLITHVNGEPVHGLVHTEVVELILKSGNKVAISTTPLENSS
Kind of assay: G assay titration, PDZ 0.1 ug/ml.

The target in assay [8] is T6, GST-ERBIN PDZ domain 1 (Homo sapiens (Human)), Q96RT1.
T6 chain: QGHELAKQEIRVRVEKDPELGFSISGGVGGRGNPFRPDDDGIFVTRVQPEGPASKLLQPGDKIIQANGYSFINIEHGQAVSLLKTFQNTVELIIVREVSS
Kind of assay: G assay titration, PDZ 5 ug/ml.

For assay [9], the target named is GST-KIAA1634 PDZ domain 4 (Homo sapiens (Human)), Q5TCQ9. Put plainly: G assay titration, PDZ 5 ug/ml.
Chain of GST-KIAA1634 PDZ domain 4 (Homo sapiens (Human)), Q5TCQ9 (Q5TCQ9 844-945): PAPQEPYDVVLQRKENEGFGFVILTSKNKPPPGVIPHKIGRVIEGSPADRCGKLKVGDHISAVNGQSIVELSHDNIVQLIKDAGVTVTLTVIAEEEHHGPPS
The target of assay [10] is T7, GST-Outer Membrane PDZ domain 1 (Homo sapiens (Human)), P57105.
T7 chain: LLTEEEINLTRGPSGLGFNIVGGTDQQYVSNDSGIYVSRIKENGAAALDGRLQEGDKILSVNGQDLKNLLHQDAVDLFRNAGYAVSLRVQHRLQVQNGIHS
Kind of assay: G' assay. Also: key of the grades not given here.

Assay [11] deals with T6, GST-ERBIN PDZ domain 1 (Homo sapiens …). Put plainly: G' assay.
Assay [12] addresses T8, GST-KIAA0380 PDZ domain 1 (Homo sapiens (Human)), O15085.
T8 chain: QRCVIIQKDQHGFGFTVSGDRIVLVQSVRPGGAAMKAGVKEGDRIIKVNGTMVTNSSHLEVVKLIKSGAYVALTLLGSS
Kind of assay: G' assay.

In assay [13] the target is GST-BAI-1 Associated Protein PDZ domain 5 (Homo sapiens (Human)), Q96QZ7. Kind of assay: G' assay. Also: key of the grades not given here.
Chain of GST-BAI-1 Associated Protein PDZ domain 5 (Homo sapiens (Human)), Q96QZ7 (Q96QZ7 988-1099): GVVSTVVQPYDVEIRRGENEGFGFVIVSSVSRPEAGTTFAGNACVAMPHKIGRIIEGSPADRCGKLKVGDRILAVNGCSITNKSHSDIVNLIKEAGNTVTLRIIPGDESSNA
Assay [14] deals with GST-KIAA1634 PDZ domain 4 (Homo sapiens (Human)), Q5TCQ9. Put plainly: G' assay. Also: key of the grades not given here.
Assay [15] has as its target T9, GST-Syntrophin 1 alpha PDZ domain 1 (Homo sapiens (Human)), Q13424.
T9 chain: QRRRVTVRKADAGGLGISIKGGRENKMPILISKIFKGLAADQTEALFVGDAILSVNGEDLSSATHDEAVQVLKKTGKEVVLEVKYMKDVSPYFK
Kind of assay: G' assay.

For assay [16], the target named is T10, GST-DLG1 PDZ domain 2 (Homo sapiens), Q12959.
T10 chain: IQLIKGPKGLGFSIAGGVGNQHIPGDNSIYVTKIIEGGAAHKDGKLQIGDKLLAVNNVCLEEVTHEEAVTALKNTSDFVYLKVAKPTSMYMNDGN
Put plainly: G' assay.

For assay [17], the target named is GST-KIAA807 [GST: P08515]. Kind of assay: G' assay.
Chain of GST-KIAA807 [GST: P08515] (P08515 whole entry, the tested form may be a part): as the sequence (P08515 whole entry, the tested form may be a part) above
The target of assay [18] is T11, GST-NeDLG PDZ domain 3 (Mus musculus (Mouse)), P70175.
T11 chain: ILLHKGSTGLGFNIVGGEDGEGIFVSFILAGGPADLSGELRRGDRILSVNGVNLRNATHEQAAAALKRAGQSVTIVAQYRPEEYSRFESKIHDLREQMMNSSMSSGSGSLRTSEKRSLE
Put plainly: G' assay.

For assay [19], the target named is T12, GST-INADL PDZ domain 8 (Homo sapiens (Human)), Q8NI35.
T12 chain: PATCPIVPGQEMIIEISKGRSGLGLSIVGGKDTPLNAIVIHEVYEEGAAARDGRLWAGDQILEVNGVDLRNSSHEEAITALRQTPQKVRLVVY
Put plainly: G' assay.

The target of assay [20] is T13, GST-MUPP1 PDZ domain 10 (Homo sapiens (Human)), O75970.
T13 chain: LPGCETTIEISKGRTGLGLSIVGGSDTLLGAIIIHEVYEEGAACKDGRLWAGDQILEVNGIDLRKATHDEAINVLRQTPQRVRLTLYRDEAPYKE
Kind of assay: G' assay.

The target in assay [21] is T5, GST-KIAA0807(S) PDZ domain 1 (Homo …). Put plainly: G' assay.
Assay [22] deals with T14, GST-KIAA0973 PDZ domain 1 (Homo sapiens (Human)), Q9Y2H9.
T14 chain: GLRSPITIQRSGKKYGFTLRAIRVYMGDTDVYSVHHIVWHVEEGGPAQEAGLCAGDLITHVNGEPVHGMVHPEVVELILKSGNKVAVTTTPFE
Kind of assay: G' assay.

Assay [23] has as its target T15, GST-ZO-3 PDZ domain 3 (Homo sapiens (Human)), O95049.
T15 chain: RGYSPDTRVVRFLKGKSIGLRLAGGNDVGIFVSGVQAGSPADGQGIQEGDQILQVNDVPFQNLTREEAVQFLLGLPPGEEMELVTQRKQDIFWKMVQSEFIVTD
Kind of assay: G' assay.

Assay [24] has as its target T16, GST-KIAA1526 PDZ domain 1 (Homo sapiens (Human)), Q9P202.
T16 chain: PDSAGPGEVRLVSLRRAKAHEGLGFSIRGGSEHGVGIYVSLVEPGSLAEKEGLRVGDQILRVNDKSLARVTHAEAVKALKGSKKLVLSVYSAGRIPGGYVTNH
Kind of assay: G' assay.

The target of assay [25] is T17, GST-KIAA1634 PDZ domain 2 (Homo sapiens (Human)), Q5TCQ9.
T17 chain: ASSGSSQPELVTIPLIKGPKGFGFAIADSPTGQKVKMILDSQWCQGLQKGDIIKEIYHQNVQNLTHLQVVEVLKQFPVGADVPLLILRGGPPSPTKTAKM
Kind of assay: G assay titration, PDZ 1 ug/ml.

For assay [26], the target named is GST-DLG1 PDZ domains 1, 2 (Homo sapiens), Q12959. Put plainly: G' assay. Also: key of the grades not given here.
Assay [27] has as its target T18, GST-PTPL1 PDZ domain 2 (Homo sapiens (Human)), Q12923.
T18 chain: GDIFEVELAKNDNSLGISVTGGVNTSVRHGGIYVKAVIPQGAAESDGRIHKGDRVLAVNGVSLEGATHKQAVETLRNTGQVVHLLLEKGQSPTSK
Put plainly: G' assay.

The target of assay [28] is T17, GST-KIAA1634 PDZ domain 2 (Homo sapiens …). Put plainly: G' assay.
For assay [29], the target named is GST-BAI-1 Associated Protein PDZ domain 3 (Homo sapiens (Human)), Q96QZ7. Kind of assay: G' assay. Also: key of the grades not given here.
Chain of GST-BAI-1 Associated Protein PDZ domain 3 (Homo sapiens (Human)), Q96QZ7 (Q96QZ7 other isoform, or with tags, fused parts or gaps): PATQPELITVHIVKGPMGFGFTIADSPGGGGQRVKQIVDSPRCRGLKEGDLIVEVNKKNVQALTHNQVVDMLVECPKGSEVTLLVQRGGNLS
Assay [30] deals with GST-Atrophin-1 Interacting Protein PDZ domain 5 (Rattus norvegicus (Rat)), O88382. Kind of assay: G' assay. Also: key of the grades not given here.
Chain of GST-Atrophin-1 Interacting Protein PDZ domain 5 (Rattus norvegicus (Rat)), O88382 (O88382 1128-1225): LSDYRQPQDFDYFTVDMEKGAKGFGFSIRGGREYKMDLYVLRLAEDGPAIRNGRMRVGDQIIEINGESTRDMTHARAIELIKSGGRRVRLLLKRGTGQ
Assay [31] concerns the target T19, GST-Syntrophin gamma 1 PDZ domain 1 (Homo sapiens (Human)), Q9NSN8.
T19 chain: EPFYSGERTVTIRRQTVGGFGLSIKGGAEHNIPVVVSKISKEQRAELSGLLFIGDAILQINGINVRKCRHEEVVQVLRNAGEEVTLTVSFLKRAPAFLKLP
Kind of assay: G' assay.

Assay [32] addresses GST-PSD95 PDZ domains 1, 2, 3 (Homo sapiens), P78352. Kind of assay: G' assay. Also: key of the grades not given here.
Assay [33] deals with T20, GST-NeDLG PDZ domains 1, 2, Q92796.
T20 chain: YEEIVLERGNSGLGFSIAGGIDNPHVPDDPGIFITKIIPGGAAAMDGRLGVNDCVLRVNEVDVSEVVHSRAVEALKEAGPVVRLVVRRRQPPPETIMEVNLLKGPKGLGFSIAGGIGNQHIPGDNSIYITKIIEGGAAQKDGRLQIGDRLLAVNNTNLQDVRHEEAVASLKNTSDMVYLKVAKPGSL
Kind of assay: G' assay.

For assay [34], the target named is T18, GST-PTPL1 PDZ domain 2 (Homo sapiens …). Put plainly: G assay titration, PDZ 0.5 ug/ml.

Chain of GST-PSD95 PDZ domains 1, 2, 3 (Homo sapiens), P78352 (P78352 62-395): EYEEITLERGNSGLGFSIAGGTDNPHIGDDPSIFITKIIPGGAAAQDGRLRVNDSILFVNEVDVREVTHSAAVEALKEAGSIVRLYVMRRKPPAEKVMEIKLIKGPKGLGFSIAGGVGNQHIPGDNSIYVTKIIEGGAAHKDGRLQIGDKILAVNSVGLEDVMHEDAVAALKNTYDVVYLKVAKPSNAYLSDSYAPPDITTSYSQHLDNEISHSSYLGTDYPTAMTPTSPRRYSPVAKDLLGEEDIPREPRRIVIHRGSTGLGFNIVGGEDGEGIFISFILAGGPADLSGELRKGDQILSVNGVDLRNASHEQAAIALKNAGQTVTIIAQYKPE

B1: CKR5 (HIV Co-receptor) (peptide)
peptide: ERASSVYTRSTGEQEISVGL
modifications: not checked
As for B1, the Classification in assay [1], in [2], in assay [3], in assay [4], in assay [5] and in assay [6] was 1 A450 class throughout.

B2: CITRON protein (peptide)
peptide: AGAVRTPLSQVNKVWDQSSV
modifications: not checked
The term Kd denotes the free concentration of one partner at which half of the binding sites on the other are occupied at equilibrium, for simple one-to-one binding. The low end stands for tighter binding, the high end for weaker binding. As for B2, the values for the dissociation constant Kd in assay [7], in assay [8] and in assay [9] were 1 µM, 7 µM and 8 µM, respectively. For the same molecule, the Classification in assay [10] was 4 A450 class; in assay [11] it was 4 A450 class; in assay [12], 1 A450 class; in assay [1] it was 5 A450 class; in assay [13] it was 2 A450 class; in [14], 3 A450 class. Moreover, the Classification came to 1 A450 class in assay [15]; 2 A450 class in [16]; 4 A450 class in assay [17]; 3 A450 class in [18]; 1 A450 class in [19]; 1 A450 class in assay [20]. Besides, the Classification came out at 4 A450 class in assay [21], 5 A450 class in assay [22], 1 A450 class in assay [23] and 1 A450 class in [24].

B3: PDZ-binding kinase (PBK) (peptide)
peptide: EDPKDRPSAAHIVEALETDV
modifications: not checked
Regarding B3, the figures for the Kd in assay [25] and in assay [34] were 7 µM and 6 µM, respectively. The Classification was 1 A450 class in assay [26]; 4 A450 class in assay [27]; 1 A450 class in [1]; 3 A450 class in assay [28]; 1 A450 class in assay [29]; 1 A450 class in assay [15]. In addition, the Classification in assay [30], in assay [31], in assay [32] and in assay [33] was 1 A450 class each time.
